Some results are limits rather than exact numbers.

This experiment concerns the target T1, cynomolgus integrin avb8 (cynomolgus).
T1 chain 1: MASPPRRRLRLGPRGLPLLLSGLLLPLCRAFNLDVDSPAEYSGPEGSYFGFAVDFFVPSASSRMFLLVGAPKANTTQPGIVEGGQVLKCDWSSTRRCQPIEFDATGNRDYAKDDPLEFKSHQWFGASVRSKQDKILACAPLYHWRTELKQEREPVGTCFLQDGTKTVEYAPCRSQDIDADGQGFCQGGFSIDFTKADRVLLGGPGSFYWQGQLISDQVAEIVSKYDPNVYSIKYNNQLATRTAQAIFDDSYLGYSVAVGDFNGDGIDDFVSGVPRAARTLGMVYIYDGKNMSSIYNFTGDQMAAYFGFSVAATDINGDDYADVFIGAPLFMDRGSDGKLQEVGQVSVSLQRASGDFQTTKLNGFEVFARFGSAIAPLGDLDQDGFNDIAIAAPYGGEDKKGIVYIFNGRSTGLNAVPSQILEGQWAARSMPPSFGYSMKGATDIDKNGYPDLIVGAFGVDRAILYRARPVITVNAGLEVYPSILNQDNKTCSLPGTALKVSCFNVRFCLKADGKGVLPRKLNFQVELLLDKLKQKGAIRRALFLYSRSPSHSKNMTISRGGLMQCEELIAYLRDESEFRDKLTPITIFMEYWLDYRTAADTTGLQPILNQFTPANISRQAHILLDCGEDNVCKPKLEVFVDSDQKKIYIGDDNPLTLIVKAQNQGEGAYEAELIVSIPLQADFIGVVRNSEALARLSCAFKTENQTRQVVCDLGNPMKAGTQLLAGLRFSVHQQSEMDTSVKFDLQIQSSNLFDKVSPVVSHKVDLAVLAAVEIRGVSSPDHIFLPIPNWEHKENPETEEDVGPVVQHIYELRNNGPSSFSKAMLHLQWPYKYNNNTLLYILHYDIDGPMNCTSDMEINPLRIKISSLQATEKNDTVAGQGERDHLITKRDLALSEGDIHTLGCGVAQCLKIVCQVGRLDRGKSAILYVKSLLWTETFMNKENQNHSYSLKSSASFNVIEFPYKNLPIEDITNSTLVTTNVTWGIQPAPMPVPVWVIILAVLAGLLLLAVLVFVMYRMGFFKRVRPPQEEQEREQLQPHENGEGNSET
T1 chain 2: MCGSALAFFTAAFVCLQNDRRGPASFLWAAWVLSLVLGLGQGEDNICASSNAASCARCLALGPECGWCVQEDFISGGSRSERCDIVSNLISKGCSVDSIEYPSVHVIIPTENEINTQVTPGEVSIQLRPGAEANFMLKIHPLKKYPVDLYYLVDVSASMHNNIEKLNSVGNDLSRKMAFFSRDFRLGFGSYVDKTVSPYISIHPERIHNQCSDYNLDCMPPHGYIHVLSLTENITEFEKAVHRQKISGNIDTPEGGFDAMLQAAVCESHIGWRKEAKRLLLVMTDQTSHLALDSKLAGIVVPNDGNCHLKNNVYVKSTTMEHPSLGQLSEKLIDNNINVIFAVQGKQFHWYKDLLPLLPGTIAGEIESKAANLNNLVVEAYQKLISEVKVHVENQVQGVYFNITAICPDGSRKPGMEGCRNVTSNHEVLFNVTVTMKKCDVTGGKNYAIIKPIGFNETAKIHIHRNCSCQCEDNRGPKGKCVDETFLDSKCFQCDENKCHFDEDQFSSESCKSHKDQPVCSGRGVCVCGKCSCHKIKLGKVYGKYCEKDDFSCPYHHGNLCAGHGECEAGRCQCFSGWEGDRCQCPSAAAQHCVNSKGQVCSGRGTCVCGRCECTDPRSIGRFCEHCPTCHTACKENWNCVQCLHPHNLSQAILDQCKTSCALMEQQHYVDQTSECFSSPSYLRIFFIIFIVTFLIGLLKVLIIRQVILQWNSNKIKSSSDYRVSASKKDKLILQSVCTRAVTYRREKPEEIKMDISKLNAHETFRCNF
Nature of the experiment: SPR. In general terms: Surface plasmon resonance follows binding to a sensor surface in real time, without labels.

B1: ADWA11 2.4 Fab (antibody, V domains shown)
VH: EVQLVESGGGLVQPGGSLRLSCAASGFNIKDYYMNWVRQAPGKGLEWVGWIDPDQGNTIYEPKFQGRFTISADTSKNSAYLQMNSLRAEDTAVYYCARRLLMDYWGQGTLVTVSS
VL: DIQMTQSPSSLSASVGDRVTITCRSTKSLSHFNGNTYLFWYQQKPGKAPKRLIYYMSSLASGVPSRFSGSGSGTDFTLTISSLQPEDFATYYCQQSLEYPFTFGGGTKVEIK
The Kd is a measure of binding affinity in units of concentration. Low values mean higher affinity, high ones lower affinity. The molecule B1 displayed a Kd of under 0.1 nM.

Values taken from patent publication US20220289850 (published 2022).
